Measurements: patent US9649360B2, “Pharmaceutical composition for the treatment and/or prevention of disease involving abnormal accumulation of amyloid β protein” (SHIGA UNIVERSITY OF MEDICAL SCIENCE, priority 2012, dated 2017)

B1: ILEI: interleukin-like epithelial-mesenchymal transition inducer, secretory protein, SEQ ID NO: 1 (mature: SEQ ID NO: 2) (protein, listed as Homo sapiens)
chain: MRVAGAAKLVVAVAVFLLTFYVISQVFEIKMDASLGNLFARSALDTAARSTKPPRYKCGISKACPEKHFAFKMASGAANVVGPKICLEDNVLMSGVKNNVGRGINVALANGKTGEVLDTKYFDMWGGDVAPFIEFLKAIQDGTIVLMGTYDDGATKLNDEARRLIADLGSTSITNLGFRDNWVFCGGKGIKTKSPFEQHIKNNKDTNKYEGWPEVVEMEGCIPQKQD
B2: ILEI-His: purified recombinant ILEI protein from the pcDNA6/V5-His construct, added from outside the cells (protein, UniProt Q92520 25-227, looked up)
Protein FAM3C: QVFEIKMDASLGNLFARSALDTAARSTKPPRYKCGISKACPEKHFAFKMASGAANVVGPKICLEDNVLMSGVKNNVGRGINVALANGKTGEVLDTKYFDMWGGDVAPFIEFLKAIQDGTIVLMGTYDDGATKLNDEARRLIADLGSTSITNLGFRDNWVFCGGKGIKTKSPFEQHIKNNKDTNKYEGWPEVVEMEGCIPQKQD
modifications: V5-His tag
notes: purified recombinant ILEI protein from the pcDNA6/V5-His construct, added from outside the cells

Experiments:
γ-secretase = assay: AICD production in transfected HEK293 cells treated with NEM (immunoblot); type: cell-based, human; conditions: NEM for 60 minutes, n=3
Procedure: (§1) Brain homogenates were lysed in a buffer (25 mM HEPES, pH 7.5, 150 mM NaCl, 2 mM EDTA, protease inhibitor cocktail and 10% glycerol) containing 1% Nonidet P40. Immunoblotting was performed as previously described (Nishimura, M., et al. Nat Med 5, 164-169 (1999)).
HEK293 cells transfected with control, ILEI siRNA, or ILEI cDNA (respectively denoted by ILEI-k/d and ILEI-oe in the figure) were treated with N-ethyl maleimide (NEM) for 60 minutes to block degradation of AICD. The AICD production was inhibited by a treatment with DAPT, which is a γ-secretase inhibitor (D in the figure). β-Actin was used as a loading control. The graphs show quantified AICD signal intensities (n=3).

endogenous Notch-1 = assay: γ-secretase cleavage of endogenous Notch-1 in mouse embryonic fibroblasts (NICD immunoblot); type: cell-based; conditions: MEFs, EDTA 1.5 mM; DAPT 1 μM; n=3
Procedure: as §1
Next, γ-secretase cleavage of endogenous Notch-1 in mouse embryonic fibroblasts (MEFs) was examined (FIG. 1d). Treatment of MEF with EDTA (1.5 mM) induces cleavage of TMIC (transmembrane/intracellular Notch) and generates NEXT (Notch extracellular truncation). NEXT is further cleaved by γ-secretase to release NICD (Notch intracellular domain). The NICD production was inhibited by DAPT (1 μM). β-Actin was used as a loading control. The graphs show quantified NICD signal intensities (n=3).

ILEI-Tg mice [1] = assay: Immunoblotting of brain homogenates of ILEI-Tg mice (APP-CTF, NICD); type: in vivo, mouse; conditions: 6-week-old ILEI-Tg mice versus wild-type littermates
ILEI-Tg mice [2] = assay: Aβ40 and Aβ42 in brain homogenate fractions of ILEI-Tg mice (ELISA); type: in vivo, mouse; conditions: Tris-buffered saline-soluble and insoluble fractions, 8 months old, n=5, versus wild-type littermates
ILEI-Tg mice [3] = conditions: mouse, in vivo
[4] = test system: stable ILEI-knockdown HEK293 cells; assay: Aβ secretion after adding purified ILEI-His to culture solution of stable ILEI-knockdown HEK293 cells; type: cell-based, human
Procedure: Using this cell culture solution, the measurement of secretory Aβ from the cells was performed according to ELISAs specific for human Aβ40 and Aβ42 (Wako Pure Chemical Industries).
Purified ILEI-His was added into the culture solution of stable ILEI-knockdown HEK293 cells at the indicated concentration (μg ml^−1).

Molecule	AICD production (γ-secretase)	NICD production (Notch cleavage by γ-secretase) (endogenous Notch-1)	NICD levels in the brains (ILEI-Tg mice [1])	decrease in APP-CTF levels in the brains (ILEI-Tg mice [1]) [%]	Aβ40 level in brain homogenates (ILEI-Tg mice [2])	Aβ42 level in brain homogenates (ILEI-Tg mice [2])	development, fertility and gross morphology (ILEI-Tg mice [3])	Aβ secretion ([4]; at a concentration of 7 μg ml^−1)	Aβ secretion ([4]; purified protein added to the culture solution at the indicated concentrations (μg ml^−1))
C[C@H](NC(=O)Cc1cc(F)cc(F)c1)C(=O)N[C@H](C(=O)OC(C)(C)C)c1ccccc1 [DAPT, reference compound]	inhibited	inhibited	–	–	–	–	–	–	–
B1	–	does not perturb Notch cleavage	no alteration	30	significantly reduced	significantly reduced	normal development and fertility without any gross morphological defect	–	–
B2	–	–	–	–	–	–	–	decreased to almost the same extent as in the case of introducing siRNA-resistant ILEI cDNA	diminished Aβ secretion in a dose-dependent manner
